Here are results for 1 substance from article PMC7644731.

Common to all, as to assay: double-filter binding
Series [1] relates to Mini-PhΔSAM. The note with it: apparent Kd, n=4; Filter binding: 60 mM KCl, 12 mM Hepes pH 7.9, 0.24 mM EDTA, 4% glycerol, 0.02 nM probe, 1 h at room temperature.
Series [2] has as its system Mini-Ph-ML. The note with it: apparent Kd, n=3; Filter binding: 60 mM KCl, 12 mM Hepes pH 7.9, 0.24 mM EDTA, 4% glycerol, 0.02 nM probe, 1 h at room temperature.
Series [3] relates to Mini-Ph. Particulars: apparent Kd, n=10; Filter binding: 60 mM KCl, 12 mM Hepes pH 7.9, 0.24 mM EDTA, 4% glycerol, 0.02 nM probe, 1 h at room temperature.
Series [4] deals with Mini-Ph EH. Particulars: apparent Kd, n=5; Filter binding: 60 mM KCl, 12 mM Hepes pH 7.9, 0.24 mM EDTA, 4% glycerol, 0.02 nM probe, 1 h at room temperature.

On to 150-bp DNA probe, for which the Kd in series [1] stood at 990 nM; in series [2] it was 190 nM; in series [3], 37 nM; in series [4], 706 nM.
